Source: patent publication US20230002466A1 (ELPIS BIOPHARMACEUTICALS, published 2023)

What was measured:
human IL2Rβ [1] = molecular target: T1, human IL2Rβ (human, UniProt P14784 27-239); experiment: SPR, receptor captured on Protein A chip, mammalian-produced IL2
T1 construct: also called IL2β; CD122
T1 sequence (looked up): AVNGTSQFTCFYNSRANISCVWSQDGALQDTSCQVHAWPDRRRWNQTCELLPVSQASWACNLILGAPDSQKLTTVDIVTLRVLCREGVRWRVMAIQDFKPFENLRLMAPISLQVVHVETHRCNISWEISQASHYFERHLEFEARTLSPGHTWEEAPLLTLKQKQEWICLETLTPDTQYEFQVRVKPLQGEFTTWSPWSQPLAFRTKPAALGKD
Experimental: The assay was run with Biacore T200 control software version 2.0. For each cycle, 1 μg/mL of human IL2Rβ or IL2Rα was captured for 60 seconds at flow rate of 10 μL/min on flow cell 2 in 1×HBST buffer on Protein A sensor chip. Two-fold serial diluted HIS tag purified engineered IL2 mutant was injected onto both reference flow cell 1 and IL2Rβ or IL2Rα captured flow cell 2 for 150 seconds at flow rate of 30 μL/min followed by washing for 300 seconds. The flow cells were then regenerated with Glycine pH 2 for 40 seconds at a flow rate of 30 μL/mins. Eight concentration points from 0 to 100 nM were assayed for each IL2Rβ agonist clone 96-well plate format. The kinetics data was analyzed with Biacore T200 evaluation software 3000. The specific binding response unit was derived from subtraction of binding to reference flow cell 1 from target flow cell 2.

[2] = molecular target: T2, human IL2Rβ Fc fusion protein (human, UniProt P14784 27-239); experiment: ELISA, receptor-Fc coated, anti-Flag HRP
T2 construct: also called Recombinant Fc-tagged human IL2Rβ; not shown: Fc
T2 sequence (looked up): T1 sequence (looked up)
Outline: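 Plates coated overnight at 4 C with IL2Rα or IL2Rβ Fc fusion at 2 ug/mL, then blocked. Flag-tagged IL2 mutant dilutions were added in duplicate, and binding was detected with anti-Flag HRP (1:5000) and TMB for 5 min. EC50 was fitted from OD450.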

human IL2Rβ [3] = molecular target: T1, human IL2Rβ; experiment: SPR, receptor captured on Protein A chip, E. coli-produced IL2
human IL2Rβ [4] = molecular target: T1, human IL2Rβ; experiment: SPR, IL2Rβ captured on Protein A chip
Experimental: The assay was run with Biacore T200 control software version 2.0. For each cycle, 1 ug/mL of human IL2Rβ was captured for 60 seconds at flow rate of 10 uL/min on flow cell 2 in 1×HBSP buffer on Protein A sensor chip. 100 nM of HIS and Flag tag purified each IL2 mutant was 2-fold serial diluted and injected onto both reference flow cell 1 and IL2Rβ captured flow cell 2 for 150 seconds at flow rate of 30 uL/min followed by washing for 300 seconds. The flow cells were then regenerated with Glycine pH2 for 60 seconds at a flow rate of 30 uL/min. The assay was set up with 8 serial diluted concentration points in 96-well format. The kinetics data was analyzed with Biacore T200 evaluation software 3.0. The specific binding response unit was derived from subtraction of binding to reference flow cell 1 from target flow cell 2 (FIGS. 16A-16F, Table 10).

[5] = molecular target: T2, human IL2Rβ Fc fusion protein; experiment: ELISA, Fc-tagged receptor coated, anti-HisTag-HRP
Outline: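 IL2 mutants, diluted from 1000 nM to 0 nM, were incubated 2 h at RT on plates coated overnight at 4 °C with Fc-tagged human IL2Rα (or IL2Rβ). Bound protein detected with anti-HisTag-HRP (1:5000, 1 h) and TMB. Absorbance read at 450 nm after acid stop.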

[6] = molecular target: T3, human IL2Rα Fc fusion protein (human, UniProt P01589 22-213, limits assumed); experiment: ELISA, receptor-Fc coated, anti-Flag HRP; Table 9 ELISA: titration 100 nM to 0 nM, anti-Flag HRP detection
T3 construct: also called Recombinant Fc-tagged human IL2Rα; not shown: Fc
T3 sequence (looked up): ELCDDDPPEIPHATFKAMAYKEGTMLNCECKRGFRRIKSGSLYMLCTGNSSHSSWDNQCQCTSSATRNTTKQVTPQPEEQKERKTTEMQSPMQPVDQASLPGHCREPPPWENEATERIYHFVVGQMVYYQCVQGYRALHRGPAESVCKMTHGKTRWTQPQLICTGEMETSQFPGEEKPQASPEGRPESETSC
Experimental: Briefly, 384 well plate was immobilized with human IL2Rα and IL2Rβ Fc fusion proteins at a final concentration of 2 ug/mL in 1×PBS in total volume of 25 uL per well. The plate was incubated overnight at 4 C and blocked with 80 uL of superblock per well for 1 hour. […] Each dilution was added to IL2Rα or IL2Rβ wells in parallel in duplicates. The IL2 mutant binding was detected by adding 25 uL of anti-Flag HRP diluted at 1:5000 in 1×PBST. In between each step, the plate was washed three times with 1×PBST using a plate washer. The plate was then developed with 25 uL of TMB substrate for five minutes and stopped by adding 25 ul of 2N sulfuric acid. The plate was read at OD450 nm Biotek plate reader and the EC50 was analyzed with Prism 8.1 software to generate EC50 values (FIG. 15A for IL2Rα, and FIG. 15B for IL2Rβ, summarized in Table 9).

Kd (human IL2Rβ [1]): 0.743 nM
koff (human IL2Rβ [1]): 0.00417 s⁻¹
kon (human IL2Rβ [1]): 5.61e+06 M⁻¹ s⁻¹
relative activity IL2Rβ (KD: fold) against WT IL2 (human IL2Rβ [1]): 1360 fold
EC50 [2]: 0.7 nM
Kd (human IL2Rβ [3]): 1.12 nM
koff (human IL2Rβ [3]): 0.00365 s⁻¹
kon (human IL2Rβ [3]): 3.26e+06 M⁻¹ s⁻¹
relative activity IL2Rβ (KD: fold) against WT IL2 (human IL2Rβ [3]): 3890 fold
Kd (human IL2Rβ [4]): 1.52 nM
koff (human IL2Rβ [4]): 0.00589 s⁻¹
kon (human IL2Rβ [4]): 3.86e+06 M⁻¹ s⁻¹
EC50 [5]: 8.1 nM
EC50 [6]: 259 nM
B1: EP001 (ligand)
chain: APTSSSTKKTQLQLEHLLLDLQMILNGINNYKNPKLTRMLTFKFYMPKKATELKHLQCLEEELKPLEEVLNLAQSKNFHLTARDAVDNMRVIIQELKGSETTFMCEYADETATIVEFLNRWITFCQSIISTLT
notes: Produced in E. coli or mammalian cells; also called EP0001; not shown: C-terminal Flag and 6xHis tags
